# Results published in patent publication US20120088313A1 (JAPAN TOBACCO, published 2012).
# T1: BioEase tag-fused SITH-1 protein (human herpes virus 6 (HHV-6), biotinylated in vivo (E. coli) within the N-terminal BioEase tag; residue not stated)
# T1 construct: Fusion of the BioEase biotinylation tag (N-terminal) with HHV-6 SITH-1, expressed in E. coli BL21 (DE3); Used as a crude extract on blots, or captured on a TM2 plate; also called BioEase-SITH-1 fusion protein; biotinylated SITH-1
# T1 chain: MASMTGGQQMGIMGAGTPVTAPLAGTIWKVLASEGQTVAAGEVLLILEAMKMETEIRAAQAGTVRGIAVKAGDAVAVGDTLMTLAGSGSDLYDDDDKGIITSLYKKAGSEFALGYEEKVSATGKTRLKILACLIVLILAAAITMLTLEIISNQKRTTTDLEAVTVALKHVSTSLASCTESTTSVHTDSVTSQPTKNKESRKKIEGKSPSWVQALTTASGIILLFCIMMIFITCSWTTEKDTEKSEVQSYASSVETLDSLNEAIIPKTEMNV
# B1: tamavidin 2 (other)
# chain: MSDVQSSLTGTWYNELNSKMELTANKDGTLTGKYLSKVGDVYVPYPLSGRYNLQPPAGQGVALGWAVSWENSKIHSATTWSGQFFSESSPVILTQWLLSSSTARGDVWESTLVGNDSFTKTAPTEQQIAHAQLHCRAPRLK
# notes: Purified TM2 immobilized on a New ELISA microplate; also called TM2; purified TM2
# Target: T1, BioEase tag-fused SITH-1 protein
# Experiment: capture of crude extract on TM2-coated microplate (binding through biotin)
binder,measurement,value
B1,binding result,binds
